Reference: patent US6518054B1, “Metallo-endopeptidases” (Rijksuniverstteit Te Groningen, priority 1997, dated 2003)
Positions count from the first letter of the chain named. Names and notes keep the numbering of the source.

Experiments:
[1] = First order thermal inactivation of TLP-ste variants at 75° C. in 5 mM or 0.2 mM CaCl2
[2] = tested on: α-amylase from Bacillus licheniformis; assay: Hydrolysis of protease resistant α-amylase (SDS-PAGE); type: biochemical; conditions: 60 minutes
Description: As an example of the enzymatic activity of the 8-fold mutant we tested the hydrolysis of protease resistant α-amylase from Bacillus licheniformis by the 8-fold mutant. B. licheniformis α-amylase (1 mg/ml) in 50 mM MOPS, pH 7.0, 5 mM CaCl2, 0.01% Triton X-100 was incubated with purified TLP-ste (1 μg/ml), the 8-fold mutant or without protease for 60 minutes at the temperature indicated. The reaction volume was 500 μL. […] Precipitates (only observed in the 100° C. samples) were collected by centrifugation and redissolved in 500 μL 6 M Urea. Both supernatants and redissolved precipitates were subjected to standard SDS-PAGE, including pre-treatment with sample loading buffer (5 minutes at 100° C.). The samples were identical in size (20 μL supernatant and 20 μL dissolved precipitate). Gels were stained with Coomassie-brilliant blue.

[3] = Effect of denaturing agents on protease activity (FaGLa, 50° C.); type: biochemical
Description: Protease activities were determined in 50 mM MOPS (pH 7.0), 5 mM CaCl2, 50 mM NaCl, 0.01% Triton X-100, 0.5% isopropanol, using 100 μM FaGLa (3-(-2-furylacryloyl)-L-glycyl-L-leucine amide) as a substrate at 50° C. Enzymes and denaturing agents were preincubated in the reaction mixture at 50° C. for 15 minutes prior to the addition of the substrate. The reaction was followed by measuring the change in absorbance at 345 nm. […] Activities are expressed as percentage of the activity in the absence of denaturant.

casein [4] = assay: Optimum temperature for activity with casein; type: biochemical; conditions: casein 0.8%, 30 minutes
Description: (§1) Specific activities for TLP-ste and the 8-fold mutant were determined using casein (0.8%) as a substrate in 50 mM Tris-HCl (pH 7.5), 5 mM CaCl2 at 37° C. […] (pH 7.0), 5 mM CaCl2, 5% or 1% DMSO, 0.5% isopropanol, 0.01% Triton X-100, 50 mM NaCl, with […] of substrate, by measuring the decrease in absorption at 345 nm (Î345=−317 M^−1·cm^−1). Stock solutions of the furylacryloylated dipeptides, (Sigma, St. Louis, […].) were prepared by dissolving 3-(-2-furylacryloyl)-L-glycyl-L-leucine amide (FaGLa) and 3-(-2-furylacryloyl)-L-alanyl-L-phenylalanine amide (FaAFa) in DMSO. The kcat/Km ratios of the enzymes were determined by varying the enzyme concentrations (over a 50 fold range) under pseudo-first order conditions by measuring the initial activity, essentially according to the method described by Feder^30. The Ki for phosphoramidon (N-[a-L-rhamnopyrano-syl-oxyhydroxyphophinyl]-L-leucyl-L-tryptophan) was determined by a 30 minute preincubation of a 100 pM protease solution with varying concentrations of the inhibitor (10^−8 to 10^−3 M), in 50 mM MOPS (pH 7.0), 5 mM CaCl2, 50 mM NaCl, prior to the addition of the furylacryloated substrate. For determination of the Ki FaAFa was used as the substrate. Since the Km of the substrate for the enzyme is higher than the concentration used, IC50 values were taken to be equal to Ki values. The optimum temperature for activity was determined by incubating proteases with casein (0.8%) in 50 mM Tris-HCl (pH 7.5), 5 mM CaCl2, at different temperatures for 30 minutes, after which the amount of released peptides, indicative for activity, was measured^11.

casein [5] = assay: Specific activity with casein as substrate at 37° C.; type: biochemical; conditions: casein 0.8%, pH 7.5, 5 mM CaCl2
Description: as §1

[6] = Thermal stability (T50) at varying CaCl2 concentrations
Description: Thermal stability was measured, using varying CaCl2concentrations in the standard assay buffer (20 mM Na acetate, pH 5.3, 0.01% Triton X-100, 0.5% isopropanol, 62.5 mM NaCl). T50 is the temperature of incubation at which 50 percent of the initial proteolytic activity is lost during a 30 minutes incubation.

[7] = type: physicochemical; conditions: buffer, pH 5.3
Description: Stabilities of TLPs were determined at different temperatures. Shown are the first-order inactivation curves for TLP-ste incubated at 80° C. (Δ) and 90° C. (+), thermolysin at 90° C. (Δ), and the 8-fold mutant at 100° C. (●), respectively. […] Samples, taken at the various time points, were quickly cooled on ice (15 s) and transferred to 50° C. to prevent cold denaturation. Residual activity was determined using casein (0.8%) as a substrate in 50 mM TrisHCl (pH 7.5), 5 mM CaCl2 as described previously (Eijsink, V. G. H., Veltman, O. R., Aukema, W., Vriend, G. & Venema, G. Nature Struct. Biol. 2, 374-379 (1995)).

[8] = 0.2 mM CaCl2, 30 minutes incubation
[9] = 0.5 mM CaCl2, 30 minutes incubation
[10] = 2.5 mM CaCl2, 30 minutes incubation
[11] = 5.0 mM CaCl2, 30 minutes incubation
[12] = 7.5 mM CaCl2, 30 minutes incubation
[13] = 12.5 mM CaCl2, 30 minutes incubation

B1: TLP-ste: broad-specificity metalloprotease (thermolysin-like protease) produced by Bacillus stearothermophilus CU21, SEQUENCE ID No. 1 (protein)
chain: VAGASTVGVGRGVLGDQKYINTTYSSYYGYYYLQDNTRGSGIFTYDGRNRTVLPGSLWTDGDNQFTASYDAAAVDAHYYAGVVYDYYKNVHGRLSYDGSNAAIRSTVHYGRGYNNAFWNGSQMVYGDGDGQTFLPFSGGIDVVGHELTHAVTDYTAGLVYQNESGAINEAMSDIFGTLVEFYANRNPDWEIGEDIYTPGVAGDALRSMSDPAKYGDPDHYSKRYTGTQDNGGVHTNSGIINKAAYLLSQGGVHYGVSVNGIGRDKMGKIFYRALVYYLTPTSNFSQLRAACVQAAADLYGSTSQEVNSVKQAFNAVGVY
Half-life ratio 5 mM/0.2 mM [1]: 12
degradation of B. licheniformis α-amylase ([2]; 80° C. and lower): No significant degradation
hydrolysis of B. licheniformis α-amylase ([2]; 100° C.): no hydrolysis had occurred
relative activity ([3]; GndHCl 0 M): 100%
relative activity ([3]; GndHCl 1.0 M): 99%
relative activity ([3]; GndHCl 2.0 M): 62%
relative activity ([3]; GndHCl 3.0 M): 0%
relative activity ([3]; GndHCl 4.0 M): 0%
relative activity ([3]; GndHCl 5.0 M): 0%
relative activity ([3]; GndHCl 5.5 M): 0%
relative activity ([3]; GndHCl 6.0 M): 0%
relative activity ([3]; SDS 0 % w/v): 100%
relative activity ([3]; SDS 0.25 % w/v): 72%
relative activity ([3]; SDS 0.5 % w/v): 37%
relative activity ([3]; SDS 0.75 % w/v): 9.6%
relative activity ([3]; SDS 1.0 % w/v): 0%
relative activity ([3]; SDS 1.25 % w/v): 0%
relative activity ([3]; SDS 1.5 % w/v): 0%
relative activity ([3]; SDS 2.0 % w/v): 0%
relative activity ([3]; Urea 0 M): 100%
relative activity ([3]; Urea 0.5 M): 96%
relative activity ([3]; Urea 1.0 M): 87%
relative activity ([3]; Urea 2.0 M): 75%
relative activity ([3]; Urea 3.0 M): 3%
relative activity ([3]; Urea 4.0 M): 0%
relative activity ([3]; Urea 5.0 M): 0%
relative activity ([3]; Urea 7.5 M): 0%
Topt (optimum temperature for activity) (casein [4]): 74 °C
Specific activity casein (casein [5]): 3.5 ± 0.7 (U/mg) × 10^−3
T50 [6, 8]: 65.5 °C
T50 [6, 9]: 67.5 °C
T50 [6, 10]: 72.9 °C
T50 [6, 11]: 75.2 °C
T50 [6, 12]: 77.0 °C
T50 [6, 13]: 77.9 °C
half-life 80° C. [7]: 17.5 min
half-life 90° C. [7]: <2 min
half-life 100° C. [7]: <0.5 min

B2: TLN: thermolysin, protease secreted by Bacillus thermoproteolyticus, SEQUENCE ID No. 2 (protein, UniProt P00800 233-548, looked up)
Thermolysin: ITGTSTVGVGRGVLGDQKNINTTYSTYYYLQDNTRGNGIFTYDAKYRTTLPGSLWADADNQFFASYDAPAVDAHYYAGVTYDYYKNVHNRLSYDGNNAAIRSSVHYSQGYNNAFWNGSQMVYGDGDGQTFIPLSGGIDVVAHELTHAVTDYTAGLIYQNESGAINEAISDIFGTLVEFYANKNPDWEIGEDVYTPGISGDSLRSMSDPAKYGDPDHYSKRYTGTQDNGGVHINSGIINKAAYLISQGGTHYGVSVVGIGRDKLGKIFYRALTQYLTPTSNFSQLRAAAVQSATDLYGSTSQEVASVKQAFDAVGVK
Topt (optimum temperature for activity) (casein [4]): 77 °C
half-life 80° C. [7]: >200 min
half-life 90° C. [7]: 12.5 min
half-life 100° C. [7]: <2 min

B3: D57S: TLP-ste variant with Asp57 of the Ca3 site replaced by Ser (protein, listed as Bacillus sp.)
chain: VAGASTVGVGRGVLGDQKYINTTYSGYYYLQDNTRGSGIFTYDGRNRTVLPGSLWTSGDNQFTASYDAAAVDAHYYAGVVYDYYKNVHGRLSYDGSNAAIRSTVHYGRGYNNAFWNGSQMVYGDGDGQTFLPFSGGIDVVGHELTHAVTDYTAGLVYQNESGAINEAMSDIFGTLVEFYANRNPDWEIGEDIYTPGVAGDALRSMSDPAKYGDPDHYSKRYTGTQDNGGVHTNSGIINKAAYLLSQGGVHYGVSVNGIGRDKMGKIFYRALVYYLTPTSNFSQLRAACVQAAADLYGSTSQEVNSVKQAFNAVGVY
Half-life ratio 5 mM/0.2 mM [1]: 1.5
dependence of stability on the calcium concentration [6]: reduced this calcium dependence
T50 [6, 8]: 65.9 °C
T50 [6, 9]: 67.3 °C
T50 [6, 10]: 67.5 °C
T50 [6, 11]: 68.2 °C
T50 [6, 12]: 68.8 °C
T50 [6, 13]: 69.4 °C
stability effect of the mutation on the wild-type enzyme ([6]; lowest calcium concentration tested): slightly stabilised

B4: T63F-A69P: TLP-ste variant with the combined stabilising T63F-A69P mutation (protein, listed as Bacillus sp.)
chain: B3 chain with S57D, T63F, A69P
Half-life ratio 5 mM/0.2 mM [1]: 19
dependence of stability on the calcium concentration [6]: depended strongly on the calcium concentration
T50 [6, 8]: 77.8 °C
T50 [6, 9]: 80.9 °C
T50 [6, 10]: 86.6 °C
T50 [6, 11]: 87.2 °C
T50 [6, 12]: 89.7 °C
T50 [6, 13]: 90.2 °C

B5: D57S-T63F-A69P: TLP-ste variant combining D57S with T63F-A69P (protein, listed as Bacillus sp.)
chain: B3 chain with T63F, A69P
Half-life ratio 5 mM/0.2 mM [1]: 1.5
dependence of stability on the calcium concentration [6]: largely independent of the calcium concentration
T50 [6, 8]: 74.6 °C
T50 [6, 9]: 75.4 °C
T50 [6, 10]: 76.2 °C
T50 [6, 11]: 76.5 °C
T50 [6, 12]: 76.7 °C
T50 [6, 13]: 77.2 °C
stability compared with the wild-type enzyme ([6]; at lower calcium concentrations): considerably more stable than the wild-type enzyme
